Experimental data from paper PMC9500918, “Extended N-Terminal Acetyltransferase Naa50 in Filamentous Fungi Adds to Naa50 Diversity” (International Journal of Molecular Sciences, 2022).
Where a chain is given by its changes, count along the chain named. In names and notes the source's numbering stands.

Legend:
Assay in all cases: colorimetric DTNB acetylation assay, Michaelis-Menten
Conditions in all cases: 1.5 mM MVNALE peptide, 30 °C, reaction buffer pH 7.5
[1] = substrate: CC(=O)SCCNC(=O)CCNC(=O)[C@H](O)C(C)(C)COP(=O)(O)OP(=O)(O)OC[C@H]1O[C@@H](n2cnc3c(N)ncnc32)[C@H](O)[C@@H]1OP(=O)(O)O; format: biochemical, Thermochaetoides thermophila
[2] = substrate: CC(=O)SCCNC(=O)CCNC(=O)[C@H](O)C(C)(C)COP(=O)(O)OP(=O)(O)OC[C@H]1O[C@@H](n2cnc3c(N)ncnc32)[C@H](O)[C@@H]1OP(=O)(O)O; format: biochemical, Thermochaetoides thermophila; remark: listed apart in the source
Source text: colorimetric DTNB acetylation assay, Michaelis-Menten on CtNaa50_1-289 (ΔC)

[3] = substrate: CC(=O)SCCNC(=O)CCNC(=O)[C@H](O)C(C)(C)COP(=O)(O)OP(=O)(O)OC[C@H]1O[C@@H](n2cnc3c(N)ncnc32)[C@H](O)[C@@H]1OP(=O)(O)O; format: biochemical, Neurospora crassa
Source text: colorimetric DTNB acetylation assay, Michaelis-Menten on NcNaa50_93-287 (GNAT)

[4] = substrate: CC(=O)SCCNC(=O)CCNC(=O)[C@H](O)C(C)(C)COP(=O)(O)OP(=O)(O)OC[C@H]1O[C@@H](n2cnc3c(N)ncnc32)[C@H](O)[C@@H]1OP(=O)(O)O; format: biochemical, Thermochaetoides thermophila; remark: listed apart in the source
Source text: colorimetric DTNB acetylation assay, Michaelis-Menten on CtNaa50_82-445 (ΔN)

[5] = substrate: CC(=O)SCCNC(=O)CCNC(=O)[C@H](O)C(C)(C)COP(=O)(O)OP(=O)(O)OC[C@H]1O[C@@H](n2cnc3c(N)ncnc32)[C@H](O)[C@@H]1OP(=O)(O)O; format: biochemical, Thermochaetoides thermophila; remark: listed apart in the source
Source text: colorimetric DTNB acetylation assay, Michaelis-Menten on CtNaa50_82-289 (GNAT)

B1: CtNaa50_1-289/CtDLC1 complex (Thermochaetoides thermophila DSM 1495) (protein)
chain: MSASRQASIKSFFQPRGLPTHNTTFSSKTPPTDRATQTTTPPPVPPPAPAPPSHQPAAPEPITISVRLPPGGVPNLPSPPSLPSGASIVPLAQEHIPALRRINSLLLPVAYPDSFYHKALDPLASGLFSRAILWQDTNADPPKVVGGLICRLEPNPFLSVTGEPTPVQLPADQPQRAPQAPKDTPFHAIYIQSLALLSPYRSLGLAAAALDHIIATAAVLPAAGSNIDARTIYAHVWTENEEGLKWYESRGFVKEGGEPVKGYYFKLRPDTAWIVRRHIGESAKLNDVV
notes: CtNaa50 1-289 (S. cerevisiae, His-tag cut by TEV) co-purified with untagged CtDLC1 (E. coli); with putative dynein light chain 1 protein
[1]
  Km: 30.4 ± 6.3 µM
  kcat: 0.357 ± 0.02 s⁻¹

B2: CtNaa50_1-289 (ΔC) (Thermochaetoides thermophila DSM 1495) (protein)
chain: B1 chain
notes: C-terminal deletion, residues 1-289, N-terminal His-tag removed by TEV, S. cerevisiae
[2]
  Km: 31.9 ± 4.4 µM
  kcat: 0.272 ± 0.01 s⁻¹
  kcat/Km: 8500 ± 1170 M⁻¹ s⁻¹

B3: NcNaa50_93-287 (GNAT) (Neurospora crassa OR74A) (protein)
chain: SQANIVAVAEHHIAALRRINSLLLQVAYPDAFYAKVLEPLASGLFSRVILWSDDPTSEPKVIGGVVCRLEPNPFLDPNGQPQAPRIQQNQPGPSAPIDYPYHAIYIQSLALLSPYRSLGLAAAALEHIIASASILPAAGSTINVRTIYAHVWTENEEGLQWYGQRGFRTEGRDPVRGYYFKLRPDTAWIVRRDIG
notes: GNAT domain, residues 93-287, C-terminal His6, E. coli; full-length 494 residues
[3]
  Km: 146.9 ± 12.1 µM
  kcat: 1.6 ± 0.05 s⁻¹
  kcat/Km: 10800 ± 1000 M⁻¹ s⁻¹

B4: CtNaa50_82-445 (ΔN) (Thermochaetoides thermophila DSM 1495) (protein)
chain: LPSGASIVPLAQEHIPALRRINSLLLPVAYPDSFYHKALDPLASGLFSRAILWQDTNADPPKVVGGLICRLEPNPFLSVTGEPTPVQLPADQPQRAPQAPKDTPFHAIYIQSLALLSPYRSLGLAAAALDHIIATAAVLPAAGSNIDARTIYAHVWTENEEGLKWYESRGFVKEGGEPVKGYYFKLRPDTAWIVRRHIGESAKLNDVVSQPQPQPQQQLQQQPAVDIAPTATSVLAAAVNLPPITSTPPPPSTGSKLPTSNTSTLASRPPPPLRSTSSSTSSATSLSYQNTRPPTEWNDIPPDMVAGPPIAARGRRVTAAAASDPAANGCSGTGSGASSRSASAAAGTGKKRKGRDYPTAAFGN
notes: N-terminal deletion, residues 82-445, E. coli
[4]
  Km: 41.2 ± 6.1 µM
  kcat: 0.398 ± 0.0167 s⁻¹
  kcat/Km: 9670 ± 1500 M⁻¹ s⁻¹

B5: CtNaa50_82-289 (GNAT) (Thermochaetoides thermophila DSM 1495) (protein)
chain: LPSGASIVPLAQEHIPALRRINSLLLPVAYPDSFYHKALDPLASGLFSRAILWQDTNADPPKVVGGLICRLEPNPFLSVTGEPTPVQLPADQPQRAPQAPKDTPFHAIYIQSLALLSPYRSLGLAAAALDHIIATAAVLPAAGSNIDARTIYAHVWTENEEGLKWYESRGFVKEGGEPVKGYYFKLRPDTAWIVRRHIGESAKLNDVV
notes: GNAT domain, residues 82-289, C-terminal His6 kept, E. coli; full-length 445 residues; one molecule per asymmetric unit
[5]
  Km: 52.7 ± 8.6 µM
  kcat: 0.607 ± 0.03 s⁻¹
  kcat/Km: 11500 ± 2000 M⁻¹ s⁻¹

B6: CtNaa50_82-289 (GNAT) (Thermochaetoides thermophila DSM 1495; Y190F) (protein)
chain: B5 chain with Y109F
notes: as for B5
[5]
  Km: 22.0 ± 4.0 µM
  kcat: 0.0933 ± 0.005 s⁻¹
  kcat/Km: 4330 ± 833 M⁻¹ s⁻¹

B7: CtNaa50_82-289 (GNAT) (Thermochaetoides thermophila DSM 1495; H235A) (protein)
chain: B5 chain with H154A
notes: as for B5
[5]
  Km: 15.3 ± 3.1 µM
  kcat: 0.0233 ± 0.00167 s⁻¹
  kcat/Km: 1500 ± 333 M⁻¹ s⁻¹
